The nanobody polyreactivity screen of Harvey et al. (2022)

Test: yeast display, Sf9 membrane polyspecificity reagent, FACS + sequencing; frameworks hold sequencing errors
In short: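 Nanobodies came from a synthetic yeast display library in Saccharomyces cerevisiae BJ5465, induced with galactose for 36–48 hours and stained for 1 hour at 4 °C with 10% biotinylated, detergent-solubilized Sf9 membrane reagent. Cells were enriched on streptavidin microbeads and then FACS-sorted, with low and high (top ~1%) gates set on anti-HA fluorescence for expression and streptavidin fluorescence for reagent binding. Each polyreactivity label reflects the gate a clone came from. Genes were amplified by colony PCR, sequenced by MiSeq 2 × 250 and filtered by CDR length.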

Sequence	polyreactivity (PSR sort gate)
QVQLVESGGGLVQAGGSLRLSCAASGLIFRHYVMGWYRQAPGKERELVAAITSRGGTTYYADSVKGRFTISRDNAKNTVYLQMNSLKPEDTAVYYCATVHSYTIQRYDYWGQGTQVTVSS	high polyreactivity
QVQLVESGGGLVQAGGSLRLSCAASGLIFRKNAMGWYRQAPGKERELVAAISSSDSSTYADSVKGRFTISRDNAKNTVYLQMYSLKPEDTAVYYCAAASYNWLDWVTREYWGQGTQVTVSS	low polyreactivity
QVQLVESGGGLVQAGGSLRLSCAASGLIFRQYAMGWYRPAPGKERELVAAITQTGGRTYYADSVKGRFTISRDNAKNTVYLQMNSLKPEDTAVYYCNALTFAAGDHYDYWGQGTQVTVSS	low polyreactivity
QVQLVESGGGLVQAGGSLRLSCAASGLIFRRYAMGWYRQAPGKEREFVAAISWSGGSTYYADSVKGRFTISRDNAKNTVYLQMNSLKPEDTAVYYCAARYRFGGIRRYNYWGQGTQVTVSS	high polyreactivity
QVQLVESGGGLVQAGGSLRLSCAASGLIFRRYAMGWYRQAPGKERELVAAISRTGGTTYYADSVKGRFTISRDNAKNTVYLQMNSLKPEDTAVYYCAAAGQGPDYDYWGQGTQVTVSS	high polyreactivity
QVQLVESGGGLVQAGGSLRLSCAASGLIFRTYAMGWNRQAPGKERELVAAIRGGGSTNYADSVNGRFTISRDNAKNTVYLQMNSLKPEDTAVYYCAALVYAVTRRRVQGYGYDYWGQGTQVTVSS	low polyreactivity
QVQLVESGGGLVQAGGSLRLSCAASGLIFRVYAMGWYRQAPGKERELVAAITWSDGSTYYADSVKGRFTISRDNAKNTVYLQMNSLKPEDTAVYYCATAYFRVYHSRYYYWGQGTQVTVSS	high polyreactivity
QVQLVESGGGLVQAGGSLRLSCAASGLIFRYYAMGVYRQAPGHERELVAALTSTGRTYYADSVKGRFTISRDNAKNTVYVQMNSLKPEDTAVYYCNTDQFADYHTDFWSDYEYWGQGTQVTVSS	low polyreactivity
QVQLVESGGGLVQAGGSLRLSCAASGLIFRYYAMGWYRQAPGKERELVAAIRRGGSTYYADSVKGRFTISRDNAKNTVYLQMNSLKPEDTAVYYCAADSYYWRYEYDYWGQGTQVTVSS	high polyreactivity
QVQLVESGGGLVQAGGSLRLSCAASGLIFRYYCMGWSRQAPRKERELVATINRSGGRTYYADSVKGRFTISRDNAKNTDSLQMNSQKRDETAVYYCAALPEVYWIYGPQMDYWGQGTQVNVSS	high polyreactivity
QVQLVESGGGLVQAGGSLRLSCAASGLIFSEYAMGWYRQAPGKERELDAAIRSDGGSTYYADSVKGRFTISRDNAKNTVYLQMNSLKPEDTAVYYCNDRHRSQTRTAMNYWGQGTIVTVSS	high polyreactivity
QVQLVESGGGLVQAGGSLRLSCAASGLIFSGYAMGRYRQAPGKERELVAAITWSGGSTYYADSVKGRFTISRDNAKNTVYLQMNSLKPEDTAVYYCNAKFFQISRYGYWGQGTQVTVSS	high polyreactivity
QVQLVESGGGLVQAGGSLRLSCAASGLIFSPYAMGWYRQAPGKERELVATISVSGGDTYYADSVKGRFTISRDNAKNTVYLQMNSLIPDDTAVYYCAADSFYRYYWGQGTHVTVSS	high polyreactivity
QVQLVESGGGLVQAGGSLRLSCAASGLIFSRYTMGWYRQAPGKERELVAAISKTGSSTYYADSVKGRFTISRDNAKNTVYLQMNSLIPEDTAVYYCAARAYPGYYWGQGTQVTVSS	high polyreactivity
QVQLVESGGGLVQAGGSLRLSCAASGLIFSTYAMGWYRQAPGKERELVAAITNSGGSTYYADSVKGRFTISRDNAKNTDYLQMNSLKPEDTAVYYCARRRSYRDNYWGQGTQVTVSS	high polyreactivity
QVQLVESGGGLVQAGGSLRLSCAASGLIFSVNAMGWYRQAPGKERELVAAITWSSGRTYYADSVKGRFTISRDNAKNTVYLQMNSLKPEDTAVYYCAAVSYWYGQMYYWGHGTQVTVSS	high polyreactivity
QVQLVESGGGLVQAGGSLRLSCAASGLIFSVYVMGWYRQAPGKERELVAGITTGGSTKYADSVKGRFTISRDNAKNTVYLQMNSLKPEDTSVYYCAVGKYNYRGSWDYYWGQGTQVTVSS	high polyreactivity
QVQLVESGGGLVQAGGSLRLSCAASGLIFSWNAMGWYRQAPGKEWELVASISYSGGRTYYADSVKGRFTISRDNAKNTVYLQKNSLKPEDTAVYYCAADTNATTDPQMDYWGQGTQVTVSS	low polyreactivity
QVQLVESGGGLVQAGGSLRLSCAASGLIFSWYDMGWYRQAPGIERELVAAITTDGDDTYYADSVKGRFTISRDNAKNTVYLQLNSLKPEDTAVYYCAADSELAIRYPDRDYDSWGHGTQVTVSS	low polyreactivity
QVQLVESGGGLVQAGGSLRLSCAASGLIFSYNAMGWYRQAPGKERELVASISSGDSTNYADSVKGRFTISRDNAKNTVYLQMNSLKPEDTAVYYCNKVYSWGDYTPPFYFPYDYWGQGTQVTVSS	low polyreactivity
QVQLVESGGGLVQAGGSLRLSCAASGLIFVDNAMGWYRQAPGKERELVAAIESGGSTNYADSVKGRFTISRDNAKNTVYLHMNSLKPEDTAVYYCAADWIYAPWYYQESVEYYYWGQGTQVTVSS	low polyreactivity
QVQLVESGGGLVQAGGSLRLSCAASGLIFVGNAMGWYRQAPGKERELVAAISSRGGRTYYADSVKGRFTISRDNAKNTVYLQMNSLKPEDTAVYYCNAAKSQWGFEYWGQGTQVTVSS	high polyreactivity

Sequence	polyreactivity (PSR sort gate)
QVQLVESGGGLVQAGGSLRLSCAASGLIFVGYAMGWSRQAPGKERELVAAITSGGYTKYADSVKGRFTISRDNAKYSVYLQMNSLKPEDTAVYFCAASGWRKWWSARNYYWGQGTQVTVSS	low polyreactivity
QVQLVESGGGLVQAGGSLRLSCAASGLIFVINAMGWYRQAPGKERELVATISSRVSTNYADSVKGRFTISRDNAKNTVYLQMNSLKPEDTAVYYCNKGQTVSRGYRLYERFDYWGQGTQVTVSS	low polyreactivity
QVQLVESGGGLVQAGGSLRLSCAASGLIFVKYAMGWYRQAPGKERELVAAITSTGGSTYYADSVKGRFTISRDNAKNTVYLQMNILKPEDTAVYYCATDYGYYDYWGQGTQVTVSS	low polyreactivity
QVQLVESGGGLVQAGGSLRLSCAASGLIFVKYARGWYRQAPGKEREFVAAITRSGGTTYYADSVKGRFTISRDNAKNPVYLQMNSLKPEDTAVYYCAAGVVIYFFGGGDYWGQGPQVTVSS	low polyreactivity
QVQLVESGGGLVQAGGSLRLSCAASGLIFVQNAMGWYRPAPGKERELVAAISSRGTNTYYADSVKGRFTISRDTAKNTVYLQMNSLKPEDTAVYYCAKPLKTPRPNYDYWGQGTQVTVSS	low polyreactivity
QVQLVESGGGLVQAGGSLRLSCAASGLIFVSYAMGWYRPAPGKERELVAAINSRGSRTYYADSVKGRFTISRDNAKNTVYLQMNSLKPEDTAVYYCAAGVIRYGGKEEYYYWGQGTQVTVSS	high polyreactivity
QVQLVESGGGLVQAGGSLRLSCAASGLIFVSYGMGWYRQAPGKERELVAAITFSGGSTYYADSVKGRFTISRDNAKNTVYLQMNSLKPEDTAVYYCNADYYPGYDYWGQGTQVTVSS	high polyreactivity
QVQLVESGGGLVQAGGSLRLSCAASGLIFVVYVMGWYRQAPGKERELVAAISGSGDSTYYADSVKGRFTISRDNAKNTVYLQMNSLKPEDTAVYYCNARSISRKKGYPPQRSDGYWGQGTQVTVSS	high polyreactivity
QVQLVESGGGLVQAGGSLRLSCAASGLIFVWYALGWSRQAPGKERELVAAISWRGGTTYYADSVKGRFTISRDNAKNTVYLQMNSLKPEDTAVYYCNAEGSQVDYLRYVWYDMDYWGQGTQVTVSS	low polyreactivity
QVQLVESGGGLVQAGGSLRLSCAASGLIFVYYTMGWYRQAPGKERELVARISQSGGTTYYADSVKGRFTISRDNAKNTVYLQMNSLKPEDTAVYYCNARRVGVHYRYDYWGQGTQVTVSS	high polyreactivity
QVQLVESGGGLVQAGGSLRLSCAASGLIFWAYAMGWYRQAPGKERELVAAINSGGRTYYADSVKGRFTISRDNAKNTVYLQMNSLKPEDTAVYYCAAAGVYSSDYWGQGTQVTVSS	low polyreactivity
QVQLVESGGGLVQAGGSLRLSCAASGLIFWAYAMGWYRQAPGKERELVAAINWRGGSTYYADSVKGRFTISRDNAKNTVYLQMNSLKPEDTAVYYCAADSYYDEYDYCGQGTQVTVSS	low polyreactivity
QVQLVESGGGLVQAGGSLRLSCAASGLIFWAYAMGWYRQAPGKERELVAGISVSGGSTYYADSVKGRFTISRDNAKNTVYLQMNSLKPEDTAVYYCAARLPRTRYWDDYWGQGTQVTVSS	high polyreactivity
QVQLVESGGGLVQAGGSLRLSCAASGLIFWHYAMGWYRQAPGKERELVARISYGGGSTYYADSVKGRFTISRDNAKNTVYLQMNSLKPEDTAVYYCNAKYYSVSQYWYNYWGQGTQVTVSS	high polyreactivity
QVQLVESGGGLVQAGGSLRLSCAASGLIFYAYVMGWYRPAPGKERELVAAITVSGGSTYYADSVKGRFTISRDNAKNTVYLQMNSLKPEDTAVYYCAADWNFYQRTFDSWGQGTQVTVSS	low polyreactivity
QVQLVESGGGLVQAGGSLRLSCAASGLIFYDNMGWSRQAPGKERELVAAISSSGGSTSYADSVKGRFTISRDNAKNTVYVQMNSLKPVDTAVYYCAADSYPAYLGFVGFDYWGQGTQVTVSS	low polyreactivity
QVQLVESGGGLVQAGGSLRLSCAASGLIFYGYVMGWYRQAPGKERELVAGISRNSGSTYYADSVKGRFTISRDNAKITVYLQMKSLKPEDTAVYYCDALKFEAWAGEDYWGQGTQLTVSS	low polyreactivity
QVQLVESGGGLVQAGGSLRLSCAASGLIFYHNTMGWYRQAPGKEREFVASITQSGGSTYYADSVKGRFTISRDNAKNTVYLQMNSLKPEDTAVYYCAKRLRPGGYWYDYWGQGTQVTVSS	high polyreactivity
QVQLVESGGGLVQAGGSLRLSCAASGLIFYKYAMGWYRQAPGNERELVAAISRGDNTYYADSVKGRFTISRDNAKNTVYLQMNSLKPEDTALYYCAAYRWIYQSQYQGYWLDYWGQGTQVTVSS	high polyreactivity
QVQLVESGGGLVQAGGSLRLSCAASGLIFYLYAMGWYRQAPGKEMELVAAISSGGSTYYADSVKGRFTISRDNAKNTVYLQMISLKPEDTAVYYCNARYYYVSGLQAYYYWGQGTQVTVSS	high polyreactivity
QVQLVESGGGLVQAGGSLRLSCAASGLIFYPYAMGWYRQAPGKERELVAGISSSGDSTYYADSVKGRFTISRDNAKNTVYLQMNSLKPDDTAVYYCNTGWDPYGYDYWGQGTQVTVSS	low polyreactivity
